According to publication PMC8996237:

Legend:
[1] = target: hCMP-mRBD from a stable HEK293 suspension cell line (human | HIV-1 JR-FL | SARS-CoV-2) (UniProt P0DTC2); experiment: SDS-PAGE
[2] = target: hCMP-mRBD from a stable CHO suspension cell line (human | HIV-1 JR-FL | SARS-CoV-2) (UniProt P0DTC2); experiment: SDS-PAGE

Substance | stoichiometry N [1] | stoichiometry N [2]
hCMP-mRBD from a stable HEK293 suspension cell line (from UniProt P0DTC2 332-532) | 3 | 
hCMP-mRBD from a stable CHO suspension cell line (from UniProt P0DTC2 332-532) |  | 3
